Patent publication US20180155407A1 (Sanofi, published 2018)
Numbered stars: 1 amine (or outer) side, 2 acyl side, 3 side chain; on linkers, the order of the positions; unused ones are H or OH. Square brackets hold non-standard residues; d marks the D form. Side chains are listed from the residue outwards. Ends that are not written are not given here. * marks the point of attachment. γGlu = O=C(O)[C@H](CCC(=O)[*:2])N[*:1]; Palmitoyl = CCCCCCCCCCCCCCCC(=O)*; Aib = CC(C)(N)C(=O)O

Key:
Assay in all cases: cell-based or functional assay
[1] = target: human glucagon receptor (human, UniProt P47871 26-477)
[2] = target: human GLP-1 receptor (human, UniProt P43220 24-463)
[3] = target: T1, human GIP receptor (human, UniProt P48546 22-466)
T1 sequence (looked up): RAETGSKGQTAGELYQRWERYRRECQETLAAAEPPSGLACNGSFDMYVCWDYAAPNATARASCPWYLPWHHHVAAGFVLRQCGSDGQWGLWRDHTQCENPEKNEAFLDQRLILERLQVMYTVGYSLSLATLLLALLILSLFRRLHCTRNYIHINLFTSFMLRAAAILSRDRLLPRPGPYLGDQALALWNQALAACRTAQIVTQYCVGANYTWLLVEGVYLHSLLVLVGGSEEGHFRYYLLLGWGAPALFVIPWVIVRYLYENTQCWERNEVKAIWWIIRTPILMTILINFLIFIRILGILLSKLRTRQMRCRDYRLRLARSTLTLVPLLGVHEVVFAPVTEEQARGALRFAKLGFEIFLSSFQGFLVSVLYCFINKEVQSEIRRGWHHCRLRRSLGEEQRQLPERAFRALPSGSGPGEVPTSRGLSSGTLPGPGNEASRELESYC

human glucagon receptor, sequence (P47871 26-477): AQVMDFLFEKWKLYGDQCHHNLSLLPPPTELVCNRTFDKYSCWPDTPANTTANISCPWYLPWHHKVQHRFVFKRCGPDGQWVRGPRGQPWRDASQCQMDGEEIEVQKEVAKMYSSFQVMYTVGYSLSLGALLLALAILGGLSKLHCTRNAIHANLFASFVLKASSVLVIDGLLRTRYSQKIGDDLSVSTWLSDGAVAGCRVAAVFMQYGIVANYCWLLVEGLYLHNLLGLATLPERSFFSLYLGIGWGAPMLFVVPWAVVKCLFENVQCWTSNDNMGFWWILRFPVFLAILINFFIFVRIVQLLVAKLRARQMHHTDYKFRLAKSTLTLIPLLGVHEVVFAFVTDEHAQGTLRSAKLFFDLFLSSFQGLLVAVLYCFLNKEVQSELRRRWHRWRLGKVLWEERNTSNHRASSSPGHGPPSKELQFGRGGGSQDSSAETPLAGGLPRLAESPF

B1: SEQ ID NO: 8 (peptide)
peptide: H[Aib]QGTFTSDLSKLK([γGlu-γGlu-Palmitoyl])EEQRQ[Aib]EFIEWLKAGGHPS[Aib]KPPPK-NH2
modifications: N-terminus assumed
SMILES: CCCCCCCCCCCCCCCC(=O)N[C@@H](CCC(=O)N[C@@H](CCC(=O)NCCCC[C@H](NC(=O)[C@H](CC(C)C)NC(=O)[C@H](CCCCN)NC(=O)[C@H](CO)NC(=O)[C@H](CC(C)C)NC(=O)[C@H](CC(=O)O)NC(=O)[C@H](CO)NC(=O)[C@@H](NC(=O)[C@H](Cc1ccccc1)NC(=O)[C@@H](NC(=O)CNC(=O)[C@H](CCC(N)=O)NC(=O)C(C)(C)NC(=O)[C@@H](N)Cc1c[nH]cn1)[C@@H](C)O)[C@@H](C)O)C(=O)N[C@@H](CCC(=O)O)C(=O)N[C@@H](CCC(=O)O)C(=O)N[C@@H](CCC(N)=O)C(=O)N[C@@H](CCCNC(=N)N)C(=O)N[C@@H](CCC(N)=O)C(=O)NC(C)(C)C(=O)N[C@@H](CCC(=O)O)C(=O)N[C@@H](Cc1ccccc1)C(=O)N[C@H](C(=O)N[C@@H](CCC(=O)O)C(=O)N[C@@H](Cc1c[nH]c2ccccc12)C(=O)N[C@@H](CC(C)C)C(=O)N[C@@H](CCCCN)C(=O)N[C@@H](C)C(=O)NCC(=O)NCC(=O)N[C@@H](Cc1c[nH]cn1)C(=O)N1CCC[C@H]1C(=O)N[C@@H](CO)C(=O)NC(C)(C)C(=O)N[C@@H](CCCCN)C(=O)N1CCC[C@H]1C(=O)N1CCC[C@H]1C(=O)N1CCC[C@H]1C(=O)N[C@@H](CCCCN)C(N)=O)[C@@H](C)CC)C(=O)O)C(=O)O
EC50 hGlucagon R (cAMP formation) [1]: 32.6 pM
EC50 hGLP-1R (cAMP formation) [2]: 2.2 pM
EC50 hGIP R (cAMP formation) [3]: 5.6 pM

B2: SEQ ID NO: 12 (peptide)
peptide: H[Aib]QGTFTSDLSKLK([γGlu-γGlu-Palmitoyl])EKQRQ[Aib]EFIEWLKAGGHPS[Aib]KPPPK-NH2
modifications: N-terminus assumed
SMILES: CCCCCCCCCCCCCCCC(=O)N[C@@H](CCC(=O)N[C@@H](CCC(=O)NCCCC[C@H](NC(=O)[C@H](CC(C)C)NC(=O)[C@H](CCCCN)NC(=O)[C@H](CO)NC(=O)[C@H](CC(C)C)NC(=O)[C@H](CC(=O)O)NC(=O)[C@H](CO)NC(=O)[C@@H](NC(=O)[C@H](Cc1ccccc1)NC(=O)[C@@H](NC(=O)CNC(=O)[C@H](CCC(N)=O)NC(=O)C(C)(C)NC(=O)[C@@H](N)Cc1c[nH]cn1)[C@@H](C)O)[C@@H](C)O)C(=O)N[C@@H](CCC(=O)O)C(=O)N[C@@H](CCCCN)C(=O)N[C@@H](CCC(N)=O)C(=O)N[C@@H](CCCNC(=N)N)C(=O)N[C@@H](CCC(N)=O)C(=O)NC(C)(C)C(=O)N[C@@H](CCC(=O)O)C(=O)N[C@@H](Cc1ccccc1)C(=O)N[C@H](C(=O)N[C@@H](CCC(=O)O)C(=O)N[C@@H](Cc1c[nH]c2ccccc12)C(=O)N[C@@H](CC(C)C)C(=O)N[C@@H](CCCCN)C(=O)N[C@@H](C)C(=O)NCC(=O)NCC(=O)N[C@@H](Cc1c[nH]cn1)C(=O)N1CCC[C@H]1C(=O)N[C@@H](CO)C(=O)NC(C)(C)C(=O)N[C@@H](CCCCN)C(=O)N1CCC[C@H]1C(=O)N1CCC[C@H]1C(=O)N1CCC[C@H]1C(=O)N[C@@H](CCCCN)C(N)=O)[C@@H](C)CC)C(=O)O)C(=O)O
EC50 hGlucagon R (cAMP formation) [1]: 22 pM
EC50 hGLP-1R (cAMP formation) [2]: 2.7 pM
EC50 hGIP R (cAMP formation) [3]: 15.8 pM

B3: SEQ ID NO: 10 (peptide)
peptide: H[Aib]QGTFTSDLSKLK([γGlu-γGlu-Palmitoyl])EEQRQ[Aib]EFIEWLKA[dA]GPPS[Aib]KPPPK-NH2
modifications: N-terminus assumed
SMILES: CCCCCCCCCCCCCCCC(=O)N[C@@H](CCC(=O)N[C@@H](CCC(=O)NCCCC[C@H](NC(=O)[C@H](CC(C)C)NC(=O)[C@H](CCCCN)NC(=O)[C@H](CO)NC(=O)[C@H](CC(C)C)NC(=O)[C@H](CC(=O)O)NC(=O)[C@H](CO)NC(=O)[C@@H](NC(=O)[C@H](Cc1ccccc1)NC(=O)[C@@H](NC(=O)CNC(=O)[C@H](CCC(N)=O)NC(=O)C(C)(C)NC(=O)[C@@H](N)Cc1c[nH]cn1)[C@@H](C)O)[C@@H](C)O)C(=O)N[C@@H](CCC(=O)O)C(=O)N[C@@H](CCC(=O)O)C(=O)N[C@@H](CCC(N)=O)C(=O)N[C@@H](CCCNC(=N)N)C(=O)N[C@@H](CCC(N)=O)C(=O)NC(C)(C)C(=O)N[C@@H](CCC(=O)O)C(=O)N[C@@H](Cc1ccccc1)C(=O)N[C@H](C(=O)N[C@@H](CCC(=O)O)C(=O)N[C@@H](Cc1c[nH]c2ccccc12)C(=O)N[C@@H](CC(C)C)C(=O)N[C@@H](CCCCN)C(=O)N[C@@H](C)C(=O)N[C@H](C)C(=O)NCC(=O)N1CCC[C@H]1C(=O)N1CCC[C@H]1C(=O)N[C@@H](CO)C(=O)NC(C)(C)C(=O)N[C@@H](CCCCN)C(=O)N1CCC[C@H]1C(=O)N1CCC[C@H]1C(=O)N1CCC[C@H]1C(=O)N[C@@H](CCCCN)C(N)=O)[C@@H](C)CC)C(=O)O)C(=O)O
EC50 hGlucagon R (cAMP formation) [1]: 26.1 pM
EC50 hGLP-1R (cAMP formation) [2]: 2.4 pM
EC50 hGIP R (cAMP formation) [3]: 5.4 pM

B4: SEQ ID NO: 9 (peptide)
peptide: H[Aib]QGTFTSDLSKLK([γGlu-γGlu-Palmitoyl])EEQRQ[Aib]EFIEWLKAGGPPS[Aib]KPPPK-NH2
modifications: N-terminus assumed
SMILES: CCCCCCCCCCCCCCCC(=O)N[C@@H](CCC(=O)N[C@@H](CCC(=O)NCCCC[C@H](NC(=O)[C@H](CC(C)C)NC(=O)[C@H](CCCCN)NC(=O)[C@H](CO)NC(=O)[C@H](CC(C)C)NC(=O)[C@H](CC(=O)O)NC(=O)[C@H](CO)NC(=O)[C@@H](NC(=O)[C@H](Cc1ccccc1)NC(=O)[C@@H](NC(=O)CNC(=O)[C@H](CCC(N)=O)NC(=O)C(C)(C)NC(=O)[C@@H](N)Cc1c[nH]cn1)[C@@H](C)O)[C@@H](C)O)C(=O)N[C@@H](CCC(=O)O)C(=O)N[C@@H](CCC(=O)O)C(=O)N[C@@H](CCC(N)=O)C(=O)N[C@@H](CCCNC(=N)N)C(=O)N[C@@H](CCC(N)=O)C(=O)NC(C)(C)C(=O)N[C@@H](CCC(=O)O)C(=O)N[C@@H](Cc1ccccc1)C(=O)N[C@H](C(=O)N[C@@H](CCC(=O)O)C(=O)N[C@@H](Cc1c[nH]c2ccccc12)C(=O)N[C@@H](CC(C)C)C(=O)N[C@@H](CCCCN)C(=O)N[C@@H](C)C(=O)NCC(=O)NCC(=O)N1CCC[C@H]1C(=O)N1CCC[C@H]1C(=O)N[C@@H](CO)C(=O)NC(C)(C)C(=O)N[C@@H](CCCCN)C(=O)N1CCC[C@H]1C(=O)N1CCC[C@H]1C(=O)N1CCC[C@H]1C(=O)N[C@@H](CCCCN)C(N)=O)[C@@H](C)CC)C(=O)O)C(=O)O
EC50 hGlucagon R (cAMP formation) [1]: 24.7 pM
EC50 hGLP-1R (cAMP formation) [2]: 2.6 pM
EC50 hGIP R (cAMP formation) [3]: 5.6 pM

B5: SEQ ID NO: 11 (peptide)
peptide: H[Aib]QGTFTSDLSKLK([γGlu-γGlu-Palmitoyl])EEQRQ[Aib]EFIEWLKA[dA]GHPS[Aib]KPPPK-NH2
modifications: N-terminus assumed
SMILES: CCCCCCCCCCCCCCCC(=O)N[C@@H](CCC(=O)N[C@@H](CCC(=O)NCCCC[C@H](NC(=O)[C@H](CC(C)C)NC(=O)[C@H](CCCCN)NC(=O)[C@H](CO)NC(=O)[C@H](CC(C)C)NC(=O)[C@H](CC(=O)O)NC(=O)[C@H](CO)NC(=O)[C@@H](NC(=O)[C@H](Cc1ccccc1)NC(=O)[C@@H](NC(=O)CNC(=O)[C@H](CCC(N)=O)NC(=O)C(C)(C)NC(=O)[C@@H](N)Cc1c[nH]cn1)[C@@H](C)O)[C@@H](C)O)C(=O)N[C@@H](CCC(=O)O)C(=O)N[C@@H](CCC(=O)O)C(=O)N[C@@H](CCC(N)=O)C(=O)N[C@@H](CCCNC(=N)N)C(=O)N[C@@H](CCC(N)=O)C(=O)NC(C)(C)C(=O)N[C@@H](CCC(=O)O)C(=O)N[C@@H](Cc1ccccc1)C(=O)N[C@H](C(=O)N[C@@H](CCC(=O)O)C(=O)N[C@@H](Cc1c[nH]c2ccccc12)C(=O)N[C@@H](CC(C)C)C(=O)N[C@@H](CCCCN)C(=O)N[C@@H](C)C(=O)N[C@H](C)C(=O)NCC(=O)N[C@@H](Cc1c[nH]cn1)C(=O)N1CCC[C@H]1C(=O)N[C@@H](CO)C(=O)NC(C)(C)C(=O)N[C@@H](CCCCN)C(=O)N1CCC[C@H]1C(=O)N1CCC[C@H]1C(=O)N1CCC[C@H]1C(=O)N[C@@H](CCCCN)C(N)=O)[C@@H](C)CC)C(=O)O)C(=O)O
EC50 hGlucagon R (cAMP formation) [1]: 22.4 pM
EC50 hGLP-1R (cAMP formation) [2]: 2.3 pM
EC50 hGIP R (cAMP formation) [3]: 3.5 pM

B6: SEQ ID NO: 13 (peptide)
peptide: H[Aib]QGTFTSDLSKLK([γGlu-γGlu-Palmitoyl])EKQRQ[Aib]EFIEWLKA[dA]GHPS[Aib]KPPPK-NH2
modifications: N-terminus assumed
SMILES: CCCCCCCCCCCCCCCC(=O)N[C@@H](CCC(=O)N[C@@H](CCC(=O)NCCCC[C@H](NC(=O)[C@H](CC(C)C)NC(=O)[C@H](CCCCN)NC(=O)[C@H](CO)NC(=O)[C@H](CC(C)C)NC(=O)[C@H](CC(=O)O)NC(=O)[C@H](CO)NC(=O)[C@@H](NC(=O)[C@H](Cc1ccccc1)NC(=O)[C@@H](NC(=O)CNC(=O)[C@H](CCC(N)=O)NC(=O)C(C)(C)NC(=O)[C@@H](N)Cc1c[nH]cn1)[C@@H](C)O)[C@@H](C)O)C(=O)N[C@@H](CCC(=O)O)C(=O)N[C@@H](CCCCN)C(=O)N[C@@H](CCC(N)=O)C(=O)N[C@@H](CCCNC(=N)N)C(=O)N[C@@H](CCC(N)=O)C(=O)NC(C)(C)C(=O)N[C@@H](CCC(=O)O)C(=O)N[C@@H](Cc1ccccc1)C(=O)N[C@H](C(=O)N[C@@H](CCC(=O)O)C(=O)N[C@@H](Cc1c[nH]c2ccccc12)C(=O)N[C@@H](CC(C)C)C(=O)N[C@@H](CCCCN)C(=O)N[C@@H](C)C(=O)N[C@H](C)C(=O)NCC(=O)N[C@@H](Cc1c[nH]cn1)C(=O)N1CCC[C@H]1C(=O)N[C@@H](CO)C(=O)NC(C)(C)C(=O)N[C@@H](CCCCN)C(=O)N1CCC[C@H]1C(=O)N1CCC[C@H]1C(=O)N1CCC[C@H]1C(=O)N[C@@H](CCCCN)C(N)=O)[C@@H](C)CC)C(=O)O)C(=O)O
EC50 hGlucagon R (cAMP formation) [1]: 25.8 pM
EC50 hGLP-1R (cAMP formation) [2]: 3.8 pM
EC50 hGIP R (cAMP formation) [3]: 20.4 pM
